Laboratory results from patent US20090325290A1 (published 2009).

T1: human MHC class II DR protein (DRA*0101/DRB1*0401), purified from PRIESS cells (human, UniProt P01903 26-254; P01911 30-266, limits assumed)
T1 construct: mature; 'mature' is my reading; also called HLA-DR protein; MHCII
T1 MHC II alpha: not shown
T1 MHC II beta: not shown

T2: HLA-DR (DRA*0101/DRB1*0401) on the surface of PRIESS cells (human, UniProt P01903 26-254; P01911 30-266)
T2 MHC II alpha: not shown
T2 MHC II beta: not shown


Columns and labels:
[1] = target: human-mouse chimeric molecule DR-IE (human; mouse); experiment: cell-based or functional assay
[2] = target: T3, human apotransferrin (human, UniProt P02787 20-698); experiment: ELISA, antigen coated at 10 µg/well
T3 construct: negative control protein
T3 sequence (P02787 20-698): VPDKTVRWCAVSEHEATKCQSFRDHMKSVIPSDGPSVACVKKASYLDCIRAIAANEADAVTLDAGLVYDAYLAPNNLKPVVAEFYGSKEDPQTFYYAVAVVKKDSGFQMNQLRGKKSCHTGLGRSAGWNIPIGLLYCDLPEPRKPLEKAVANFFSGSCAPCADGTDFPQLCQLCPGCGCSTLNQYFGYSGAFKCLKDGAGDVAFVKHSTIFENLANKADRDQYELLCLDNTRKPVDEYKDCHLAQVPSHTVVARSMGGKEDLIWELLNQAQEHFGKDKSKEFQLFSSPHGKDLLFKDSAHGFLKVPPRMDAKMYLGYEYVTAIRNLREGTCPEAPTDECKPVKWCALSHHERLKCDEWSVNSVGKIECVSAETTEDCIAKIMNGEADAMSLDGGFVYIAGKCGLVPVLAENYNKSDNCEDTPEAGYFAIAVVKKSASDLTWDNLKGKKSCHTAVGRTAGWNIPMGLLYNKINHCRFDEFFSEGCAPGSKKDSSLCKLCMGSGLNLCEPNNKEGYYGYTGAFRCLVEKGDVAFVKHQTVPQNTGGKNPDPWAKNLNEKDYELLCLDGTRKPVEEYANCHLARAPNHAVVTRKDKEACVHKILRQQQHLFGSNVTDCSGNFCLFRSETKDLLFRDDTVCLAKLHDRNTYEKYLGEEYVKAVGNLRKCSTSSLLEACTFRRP
Experimental: (§1) After washing in PBS the anti-human IgG F(ab)₂-peroxidase-conjugate at a 1:10,000 dilution in TBS (supplemented with 5% w/v non-fat dry-milk/0.05% v/v Tween 20) was added to each well for 1 h. Final washes were carried out in PBS followed the addition the substrate POD (Roche). Color-development was read at 370 nm in an ELISA-Reader.

[3] = target: T1, human MHC class II DR protein …; experiment: SPR (BIAcore), scFv, chip density 500RU MHCII
[4] = target: T2, HLA-DR (DRA*0101/DRB1*0401) on the …; experiment: cell-based or functional assay
[5] = target: T4, bovine serum albumine (bovine, UniProt P02769 25-607); experiment: ELISA, antigen coated at 10 µg/well
T4 construct: negative control protein; also called BSA
T4 sequence (P02769 25-607 limits assumed): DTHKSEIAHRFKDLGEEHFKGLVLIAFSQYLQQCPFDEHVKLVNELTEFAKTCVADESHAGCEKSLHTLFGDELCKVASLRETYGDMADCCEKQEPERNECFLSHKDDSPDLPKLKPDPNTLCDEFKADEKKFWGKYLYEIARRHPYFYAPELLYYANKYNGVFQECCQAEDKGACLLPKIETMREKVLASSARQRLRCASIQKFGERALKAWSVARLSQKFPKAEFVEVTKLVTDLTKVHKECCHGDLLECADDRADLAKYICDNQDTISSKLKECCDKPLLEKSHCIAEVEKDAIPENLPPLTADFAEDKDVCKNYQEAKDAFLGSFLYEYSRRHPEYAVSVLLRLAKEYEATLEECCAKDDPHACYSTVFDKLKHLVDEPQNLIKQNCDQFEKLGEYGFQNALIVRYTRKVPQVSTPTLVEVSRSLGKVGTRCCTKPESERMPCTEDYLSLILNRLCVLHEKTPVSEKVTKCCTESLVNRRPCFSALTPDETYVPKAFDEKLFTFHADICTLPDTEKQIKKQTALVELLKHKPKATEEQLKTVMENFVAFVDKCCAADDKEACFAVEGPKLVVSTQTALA
Experimental: as §1

[6] = target: T1, human MHC class II DR protein …; experiment: BiaCore, IgG4
Experimental: The affinities for anti-HLA antibody fragments of the invention were measured as follows. All measurements were conducted in HBS buffer (20 mM HEPES, 150 mM NaCl, pH 7.4) at a flow rate of 20 μl/min at 25° C. on a BIAcore3000 instrument (Biacore AB, Sweden). MHC class II DR protein (prepared as example 1) was diluted in 100 mM sodium acetate pH 4.5 to a concentration of […], and coupled to a CM5 chip (Biacore AB) using standard EDC-NHS coupling chemistry with subsequent ethanolamine treatment as manufacturers directions. The coating density of MHCII was adjusted to between 500 and 4000 RU. Affinities were measured by injection of 5 different concentrations of the different antibodies and using the standard software of the Biacore instrument. Regeneration of the coupled surface was achieved using 10 mM glycine pH 2.3 and 7.5 mM NaOH.

[7] = target: HLA-DR on the human B-lymphoblastoid cell line LG-2 (human); experiment: cell-based or functional assay

| Binder | IC50, inhibition of IL-2 secretion of T-Hyb 1 cells [1] | Maximum inhibition(%) of IL-2 secretion [1] | binding result [2] | other results |
| --- | --- | --- | --- | --- |
| MS-GPC-8-6-47 (Fab form) (Fab, V domains shown, Fab: VH-CH1-FLAG-STREP tag II) VH: QVQLKESGPALVKPTQTLTLTCTFSGFSLSTSGVGVGWIRQPPGKALEWLALIDWDDDKYYSTSLKTRLTISKDTSKNQVVLTMTNMDPVDTATYYCARSPRYRGAFDYWGQGTLVTVSS VL: DIVLTQPPSVSGAPGQRVTISCSGSESNIGSNYVSWYQQLPGTAPKLLIYDNNQRPSGVPDRFSGSKSGTSASLAITGLQSEDEADYYCQSYDYDHYVFGGGTKLTVLG | 2.6 nM ((Fab)/2) | 100% | no binding (tested: 100 ng/well) | – |
| MS-GPC-8-6 (IgG form) (antibody, V domains shown) VH: QVQLKESGPALVKPTQTLTLTCTFSGFSLSTSGVGVGWIRQPPGKALEWLALIDWDDDKYYSTSLKTRLTISKDTSKNQVVLTMTNMDPVDTATYYCARSPRYRGAFDYWGQGTLVTVSS VL: DIVLTQPPSVSGAPGQRVTISCSGSSSNIGSNYVSWYQQLPGTAPKLLIYDNNQRPSGVPDRFSGSKSGTSASLAITGLQSEDEADYYCQSYDYDHYVFGGGTKLTVLG | 6.7 nM | 100% | – | – |
| MS-GPC-1 (scFv form) (scFv, V domains shown) VH: EVQLKESGPALVKPTQTLTLTCTFSGFSLSTSGVGVGWIRQPPGKALEWLALIDWDDDKYYSTSLKTRLTISKDTSKNQVVLTMTNMDPVDTATYYCARQYGHRGGFDHWGQGTLVTVSS VL: DIVLTQPPSVSGAPGQRVTISCSGSSSNIGSNYVSWYQQLPGTAPKLLIYDNNQRPSGVPDRFSGSKSGTSASLAITGLQSEDEADYYCQSYDFNESVFGGGTKLTVLG | – | – | – | Kd [3]: 1500 nM; koff [3]: 0.061 s⁻¹; kon [3]: 41300 M⁻¹ s⁻¹ |
| MS-GPC-8-6-2 (IgG form) (antibody, V domains shown) VH: QVQLKESGPALVKPTQTLTLTCTFSGFSLSTSGVGVGWIRQPPGKALEWLALIDWDDDKYYSTSLKTRLTISKDTSKNQVVLTMTNMDPVDTATYYCARSPRYRGAFDYWGQGTLVTVSS VL: DIVLTQPPSVSGAPGQRVTISCSGSESNIGSNYVHWYQQLPGTAPKLLIYDNNQRPSGVPDRFSGSKSGTSASLAITGLQSEDEADYYCQSYDYDHYVFGGGTKLTVLG | 3.6 nM | 100% | – | – |
| MS-GPC-8-6-2 (Fab form) (Fab, V domains shown) VH: QVQLKESGPALVKPTQTLTLTCTFSGFSLSTSGVGVGWIRQPPGKALEWLALIDWDDDKYYSTSLKTRLTISKDTSKNQVVLTMTNMDPVDTATYYCARSPRYRGAFDYWGQGTLVTVSS VL: DIVLTQPPSVSGAPGQRVTISCSGSESNIGSNYVHWYQQLPGTAPKLLIYDNNQRPSGVPDRFSGSKSGTSASLAITGLQSEDEADYYCQSYDYDHYVFGGGTKLTVLG | 4.7 nM ((Fab)/2) | 100% | – | – |
| MS-GPC-8-6-13 (Fab form) (Fab, V domains shown, Fab: VH-CH1-FLAG-STREP tag II; also called 305D3) VH: QVQLKESGPALVKPTQTLTLTCTFSGFSLSTSGVGVGWIRQPPGKALEWLALIDWDDDKYYSTSLKTRLTISKDTSKNQVVLTMTNMDPVDTATYYCARSPRYRGAFDYWGQGTLVTVSS VL: DIVLTQPPSVSGAPGQRVTISCSGSESNIGANYVTWYQQLPGTAPKLLIYDNNQRPSGVPDRFSGSKSGTSASLAITGLQSEDEADYYCQSYDYDHYVFGGGTKLTVLG | 2.1 nM ((Fab)/2) | 100% | no binding (tested: 100 ng/well) | – |
| MS-GPC-10 (Fab form) (Fab, V domains shown) VH: QVQLKESGPALVKPTQTLTLTCTFSGFSLSTSGVGVGWIRQPPGKALEWLALIDWDDDKYYSTSLKTRLTISKDTSKNQVVLTMTNMDPVDTATYYCARQLHYRGGFDLWGQGTLVTVSS VL: DIVLTQPPSVSGAPGQRVTISCSGSSSNIGSNYVSWYQQLPGTAPKLLIYDNNQRPSGVPDRFSGSKSGTSASLAITGLQSEDEADYYCQSYDLTMGVFGGGTKLTVLG | – | – | – | EC50 of cell killing, as bivalent cross-linked (Fab)dimer [4]: < 60 nM; EC50 of cell killing, cross-linked Fab, as monovalent fragment [4]: < 120 nM |
| MS-GPC-8-6-19 (Fab form) (Fab, V domains shown) VH: QVQLKESGPALVKPTQTLTLTCTFSGFSLSTSGVGVGWIRQPPGKALEWLALIDWDDDKYYSTSLKTRLTISKDTSKNQVVLTMTNMDPVDTATYYCARSPRYRGAFDYWGQGTLVTVSS VL: DIVLTQPPSVSGAPGQRVTISCSGSESNIGSNYVAWYQQLPGTAPKLLIYDNNQRPSGVPDRFSGSKSGTSASLAITGLQSEDEADYYCQSYDYDHYVFGGGTKLTVLG | 5.3 nM ((Fab)/2) | 100% | – | – |
| MS-GPC-8-27-7 (Fab form) (Fab, V domains shown, Fab: VH-CH1-FLAG-STREP tag II) VH: QVQLKESGPALVKPTQTLTLTCTFSGFSLSTSGVGVGWIRQPPGKALEWLALIDWDDDKYYSTSLKTRLTISKDTSKNQVVLTMTNMDPVDTATYYCARSPRYRGAFDYWGQGTLVTVSS VL: DIVLTQPPSVSGAPGQRVTISCSGSESNIGNNYVGWYQQLPGTAPKLLIYDNNQRPSGVPDRFSGSKSGTSASLAITGLQSEDEADYYCQSYDMNVHVFGGGTKLTVLG | 5.9 nM ((Fab)/2) | 100% | no binding (tested: 100 ng/well) | binding result [5]: no binding (tested: 100 ng/well) |
| MS-GPC-8-6-27 (Fab form) (Fab, V domains shown, Fab: VH-CH1-FLAG-STREP tag II) VH: QVQLKESGPALVKPTQTLTLTCTFSGFSLSTSGVGVGWIRQPPGKALEWLALIDWDDDKYYSTSLKTRLTISKDTSKNQVVLTMTNMDPVDTATYYCARSPRYRGAFDYWGQGTLVTVSS VL: DIVLTQPPSVSGAPGQRVTISCSGSDSNIGANYVTWYQQLPGTAPKLLIYDNNQRPSGVPDRFSGSKSGTSASLAITGLQSEDEADYYCQSYDYDHYVFGGGTKLTVLG | 3 nM ((Fab)/2) | 100% | no binding (tested: 100 ng/well) | – |
| MS-GPC-8 (Fab form) (Fab, V domains shown, Fab: VH-CH1-FLAG-STREP tag II; also called B8-Fab; B8) VH: QVQLKESGPALVKPTQTLTLTCTFSGFSLSTSGVGVGWIRQPPGKALEWLALIDWDDDKYYSTSLKTRLTISKDTSKNQVVLTMTNMDPVDTATYYCARSPRYRGAFDYWGQGTLVTVSS VL: DIVLTQPPSVSGAPGQRVTISCSGSSSNIGSNYVSWYQQLPGTAPKLLIYDNNQRPSGVPDRFSGSKSGTSASLAITGLQSEDEADYYCQSYDMPQAVFGGGTKLTVLG | 110 nM ((Fab)/2) | 100% | no binding (tested: 100 ng/well) | EC50 of cell killing, as bivalent cross-linked (Fab)dimer [4]: < 60 nM; EC50 of cell killing, cross-linked Fab, as monovalent fragment [4]: < 120 nM; binding result [5]: no binding (tested: 100 ng/well) |
| MS-GPC-1 (Fab form) (Fab, V domains shown) VH: QVQLKESGPALVKPTQTLTLTCTFSGFSLSTSGVGVGWIRQPPGKALEWLALIDWDDDKYYSTSLKTRLTISKDTSKNQVVLTMTNMDPVDTATYYCARQYGHRGGFDHWGQGTLVTVSS VL: DIVLTQPPSVSGAPGQRVTISCSGSSSNIGSNYVSWYQQLPGTAPKLLIYDNNQRPSGVPDRFSGSKSGTSASLAITGLQSEDEADYYCQSYDFNESVFGGGTKLTVLG | – | – | – | EC50 of cell killing, as bivalent cross-linked (Fab)dimer [4]: < 60 nM; EC50 of cell killing, cross-linked Fab, as monovalent fragment [4]: < 120 nM |
| MS-GPC-8-27-41 (Fab form) (Fab, V domains shown, Fab: VH-CH1-FLAG-STREP tag II; also called 1D09C3) VH: QVQLKESGPALVKPTQTLTLTCTFSGFSLSTSGVGVGWIRQPPGKALEWLALIDWDDDKYYSTSLKTRLTISKDTSKNQVVLTMTNMDPVDTATYYCARSPRYRGAFDYWGQGTLVTVSS VL: DIVLTQPPSVSGAPGQRVTISCSGSESNIGNNYVQWYQQLPGTAPKLLIYDNNQRPSGVPDRFSGSKSGTSASLAITGLQSEDEADYYCQSYDMNVHVFGGGTKLTVLG | 3.6 nM ((Fab)/2) | 100% | no binding (tested: 100 ng/well) | – |
| MS-GPC-8-6-13 (IgG4 form) (antibody, V domains shown, Human IgG4 (constant region EMBL K01316), lambda constant region (EMBL M18645), from CHO-K1 cells; also called 305D3) VH: QVQLKESGPALVKPTQTLTLTCTFSGFSLSTSGVGVGWIRQPPGKALEWLALIDWDDDKYYSTSLKTRLTISKDTSKNQVVLTMTNMDPVDTATYYCARSPRYRGAFDYWGQGTLVTVSS VL: DIVLTQPPSVSGAPGQRVTISCSGSESNIGANYVTWYQQLPGTAPKLLIYDNNQRPSGVPDRFSGSKSGTSASLAITGLQSEDEADYYCQSYDYDHYVFGGGTKLTVLG | 0.42 nM | 100% | – | koff [6]: 0.00033 s⁻¹; % killing of LG-2 cells, 50 nM, 4 h [7]: 82% |
| MS-GPC-8-27-10 (Fab form) (Fab, V domains shown, Fab: VH-CH1-FLAG-STREP tag II) VH: QVQLKESGPALVKPTQTLTLTCTFSGFSLSTSGVGVGWIRQPPGKALEWLALIDWDDDKYYSTSLKTRLTISKDTSKNQVVLTMTNMDPVDTATYYCARSPRYRGAFDYWGQGTLVTVSS VL: DIVLTQPPSVSGAPGQRVTISCSGSESNIGANYVNWYQQLPGTAPKLLIYDNNQRPSGVPDRFSGSKSGTSASLAITGLQSEDEADYYCQSYDMNVHVFGGGTKLTVLG | 7.3 nM ((Fab)/2) | 100% | no binding (tested: 100 ng/well) | binding result [5]: no binding (tested: 100 ng/well) |
